Source: patent publication US7294472B2, “Method for identifying modulators of G protein coupled receptor signaling” (Caden Biosciences, priority 2001, dated 2007)
Each block holds one sequence with its values, some of them ahead of it. Where no end group is shown, it is not given here.

Columns and labels:
β2 adrenergic receptor = β2 adrenergic receptor (Homo sapiens, UniProt P07550); test: ELISA binding of peptides panned from the Gs library to β2 adrenergic receptor; conditions: recombinant reconstituted β2 adrenergic receptor; peptides selected from Gs library
Text: The methods of Example 7 were repeated using recombinant reconstituted β2 adrenergic receptor panned with the Gs Library.

rhodopsin [1] = target: T1, rhodopsin (Bos taurus, UniProt P02699); test: ELISA binding of lysates of peptides panned from the Gt library to rhodopsin; design: species or system bovine; conditions: OD450 for wells with receptor minus OD450 for wells with no receptor
T1 construct: Bovine rod outer segments (rhodopsin-containing membranes) were prepared from fresh retinas; from tissue; host or cells: bovine retina, rod outer segment membranes (EDTA- and urea-washed)
T1 sequence (P02699 whole entry): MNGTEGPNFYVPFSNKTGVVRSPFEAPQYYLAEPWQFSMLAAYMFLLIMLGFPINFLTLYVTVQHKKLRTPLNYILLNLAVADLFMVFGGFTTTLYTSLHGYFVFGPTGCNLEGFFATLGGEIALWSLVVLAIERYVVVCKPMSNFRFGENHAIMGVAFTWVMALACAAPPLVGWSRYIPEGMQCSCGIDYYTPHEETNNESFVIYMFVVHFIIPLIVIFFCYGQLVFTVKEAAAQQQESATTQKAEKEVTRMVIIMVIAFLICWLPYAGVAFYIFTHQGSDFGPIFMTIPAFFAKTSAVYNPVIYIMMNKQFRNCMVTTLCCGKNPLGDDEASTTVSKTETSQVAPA
Description: The panning process is illustrated in FIG. 1. For screening of the library by “panning,” rhodopsin receptors prepared according to Example 5 were immobilized directly on Immulon 4 (Dynatech) microtiter wells (0.1-1 μg of protein per well) in cold 35 mM HEPES, pH 7.5, containing 0.1 mM EDTA, 50 mM KCl and 1 mM dithiothreitol (HEK/DTT). After shaking for one hour at 4° C., unbound membrane fragments were washed away with HEK/DTT. The wells were blocked with 100 μl 2% BSA in HEKL (35 mM HEPES; 0.1 mM EDTA; 50 mM KCl; 0.2 M α-lactose; pH 7.5, with 1 mM DTT). For rounds 1 and 2, BSA was used for blocking; in later rounds 1% nonfat dry milk was used. For the first round of panning, about 24 wells of a 96-well plate were used. In subsequent rounds, 8 wells with receptor and 8 wells without receptor were prepared.
The Gt library was thawed (2 mL aliquot) and mixed with 6 mL lysis buffer on ice. Lysis buffer contains 4.25 mL HE (25 mM HEPES: 0.1 mM EDTA; pH 7.5); 1 mL 50% glycerol; 750 μL 10 mg/mL protease-free BSA in HE; 10 μL 0.5 M DTT; and 6.25 μL 0.2 M PMSF. Freshly prepared lysozyme solution (150 μL 10 mg/mL lysozyme in cold HE) was added and the tube was gently inverted several times and incubated on ice for no more than two minutes. The extent of lysis is evidenced by an increase in viscosity that can be observed by noting the slow migration of bubbles to the top of the tube after mixing. Lysis was terminated by mixing in 2 mL 20% lactose and 250 μL 2M KCl. The tube was centrifuged immediately at 13,000×g for 15 minutes at 4° C. and the supernatant transferred to a new tube. A small aliquot of 0.1% (the PRE sample) was saved in a separate, labeled tube. […] Immediately thereafter, the crude bacterial lysate from the peptide library (200 μL) was added to each well and allowed to shake gently for one hour at 4° C. For round 2, this same procedure was followed. In round 3, the amount of lysate used was reduced to 100 μL. In subsequent rounds, the lysate was diluted 1:10 in HEKL/BSA. In all rounds, 5-10 μL 200 μM native peptide was added to the wells to chase off peptides that were bound with lower affinity.
The methods of Example 7 repeated using rhodopsin screening with a Gt library. To identify the rank order of binding, the lysates were analyzed using ELISA methods in which the secondary antibody was conjugated to HRP. Following addition of the substrate, the microplate was read using a spectrophotometer. The binding is the OD450 for wells with receptor—OD450 for wells in which no receptor (control wells with empty lipid vesicles).

[2] = target: T2, light-activated rhodopsin (Bos taurus, UniProt P02699); test: ELISA binding of MBP-peptide fusion proteins to light-activated rhodopsin; design: species or system bovine; conditions: for EC50 / ELISA OD450: MBP-high affinity peptide fusion proteins; for EC50: read-out: MII binding EC50; for ELISA OD450: absorbance at OD450 in a panning ELISA
T2 construct: Bovine rod outer segments (rhodopsin-containing membranes) were prepared from fresh retinas; from tissue; host or cells: bovine retina, rod outer segment membranes (EDTA- and urea-washed)
T2 sequence (P02699 whole entry, the tested form may be a part): as the sequence (P02699 whole entry) above
Text: The entire population of peptide-coding sequences identified in round 4 of panning (see Example 7) was transferred from pJS142 to pELM3 (New England Biolabs). This plasmid is a pMal-c2 derivative with a modified polylinker, inducible by isopropyl β-thiogalacto-pyranoside and containing the E. coli malE gene with a deleted leader sequence and leads to cytoplasmic expression of MBP fusion proteins. The MBP-carboxyl terminal peptide analog fusion proteins were expressed in E. coli.
For the assay, in the dark, 1 μg/well of ROS membranes (rhodopsin) as described in Example 5 was directly immobilized on microtiter wells in cold HEK/DTT for one hour at 4° C. The wells were rinsed, blocked with 1% BSA in HEK/DTT for one hour at 4° C. and rinsed again. Bound rhodopsin was activated by exposure to light for 5 minutes on ice before addition of the MBP fusion proteins (crude bacterial lysates were diluted 1:50 in HEK with 1 μM dithiothreitol; purified proteins were used at 0.2-120 nM). The MBP-Gαt340-350K341R (pELM17) fusion protein and MBP with linker sequence only (pELM6) were present in control wells at 50 nM final concentration. After 30 minutes, wells were washed and rabbit anti-MBP antibody (New England Biolabs) was added. The anti-MBP antibody was used at a 1:1000 dilution for crude lysates and a 1:3000 dilution for purified proteins. After 30 minutes, wells were rewashed and goat anti-rabbit antibody conjugated to horseradish peroxidase (1:7500 dilution for crude lysates; 1:10,000 dilution for purified proteins; Kierkagaard & Perry Laboratories) was added. After 30 minutes, the plate was washed four times with PBS containing 0.05% Tween™20. Horseradish peroxidase substrate (100 μl) was added and color was allowed to develop for about 20 minutes. The reaction was stopped by addition of 100 μl 2N sulfuric acid. Values indicate absorbance at OD450. The positive control for the assay was pELM 17, which encodes the MBP fusion protein Gαt340-350K341R. pELM6, which expresses MBP protein fused to a linker sequence only, served as the negative control. “No lysate” control wells were included to reflect any intrinsic, non-specific binding within the assay. […]

rhodopsin [3] = target: T1, rhodopsin; test: "extra MII" assay: stabilization of metarhodopsin II; type: biochemical, bovine; conditions: for EC50: MBP-high affinity peptide fusion proteins
Text: Rhodopsin can be measured spectrophotometrically in many of its conformational states. The high affinity, biologically active rhodopsin state can be easily differentiated from its precursor, MI, by the “extra” MII assay. See Example 35. This assay relies on the observation that under conditions of high pH and low temperature, MII is stabilized in the presence of Gt and can be spectrophotometrically measured. The ability of the C-terminal peptide to stabilize Meta II in the same manner as the heterotrimeric Gt, provides the tools to investigate the structural basis of the interaction of G proteins with the agonist binding sites of activated receptors.
For the “extra MII” assay, EDTA-washed rhodopsin (Example 5; 5 μM) is incubated in a 50 mM HEPES buffer, pH 8.2, with 100 mM NaCl, 1 mM MgCl2, and 1 mM DTT at 5.3° C., in the absence or presence of varying concentrations of Gt340-350 analogs or Gt. The sample is maintained at 5.4° C. using a water-jacketed and thermostated circulator cuvette holder in an SLM Aminco DW2000 spectrophotometer at 390 and 440 nm. A flash of light bleaching 10% of the rhodopsin is presented and after a 1 min incubation, a second spectrum is measured and the difference in spectrum calculated. “Extra” MII is calculated as the difference between the absorbance at 390 and 440. Dose response curves of MII stabilization by αt340350 (λ), mutant α340-350K341L(ν), and heterotrimeric Gt (v) were analyzed by non-linear regression using the program GraphPad PRISM and are shown in FIG. 23.
EDTA-washed rhodopsin (5 μM) was incubated in a 50 mM HEPES buffer, pH 8.2, with 100 mM NaCl, 1 mM MgCl2, and 1 mM DTT at 5.3° C., and “extra” MII was measured. For compounds that enhanced MBP-8 binding over 25% using the color coded readout, dose studies were performed to generate EC50 curves. Table XXII below provides the calculated EC50 for metarhodopsin II stabilization of each compound.

PAR1 = target: T3, PAR1 (Homo sapiens, UniProt P25116); test: ELISA binding of purified MBP clones to SF9 membranes expressing PAR1 or muscarinic M1 receptor; design: expressed in transfected cells; host or cells: membranes of Sf9 insect cells infected with ThR/pBluebac recombinant virus; conditions: for specificity (in words): PAR1 versus Gq-coupled muscarinic M1 receptor; for binding affinity for PAR1 (in words): purified MBP clones, SF9 membranes
T3 sequence (P25116 22-425): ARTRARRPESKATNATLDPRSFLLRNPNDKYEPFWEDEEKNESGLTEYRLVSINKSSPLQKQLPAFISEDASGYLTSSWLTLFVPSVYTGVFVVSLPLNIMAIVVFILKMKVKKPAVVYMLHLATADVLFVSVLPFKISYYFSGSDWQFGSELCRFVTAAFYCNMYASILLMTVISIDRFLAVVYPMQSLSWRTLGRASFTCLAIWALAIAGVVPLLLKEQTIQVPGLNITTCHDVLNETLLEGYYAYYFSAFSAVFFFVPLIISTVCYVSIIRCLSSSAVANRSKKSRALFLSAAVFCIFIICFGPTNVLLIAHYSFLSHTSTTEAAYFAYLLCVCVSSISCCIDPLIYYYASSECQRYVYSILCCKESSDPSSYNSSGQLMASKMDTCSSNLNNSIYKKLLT
Description: To identify high affinity peptides that bind PAR1, membranes prepared from mammalian cells (Chinese hamster ovary) overexpressing PAR1 were panned with the G11 peptide library. ELISA binding affinity results of selected clones are shown in FIG. 9 for their binding to membranes prepared from SF9 cells expressing either PAR1 or the Gq-coupled muscarinic M1 receptor. To quantitate the binding, purified MBP clones were analyzed using ELISA methods in which the secondary antibody was conjugated to HRP. The binding for the control MBP-Gq fusion protein is shown. The data are the average of two separate experiments done in duplicate.

Sequence: DRMHLWRFGLL [AG11]
ELISA (β2 adrenergic receptor): .192

Sequence: ERLHRRLFQLH [BAR8]
ELISA (β2 adrenergic receptor): .047

Sequence: HRRHIGEFALL [BAR11]
ELISA (β2 adrenergic receptor): .048

Sequence: LHLNLKEYNLV (also: fused to MBP) [PAR-33, MBP clone, linker LSTN]
specificity (in words) (PAR1): low specificity | binding affinity for PAR1 (in words) (PAR1): low affinity

Sequence: LQLNRNEYYLV (also: fused to MBP) [PAR-13, MBP clone, linker VRPS]
binding affinity for PAR1 (in words) (PAR1): high affinity binding

Sequence: LQQKLKEYSLV (also: fused to MBP) [PAR-23, MBP clone, linker LSRS]
specificity (in words) (PAR1): low specificity | binding affinity for PAR1 (in words) (PAR1): low affinity

Sequence: NCMKFRSCGLF [BAR20]
ELISA (β2 adrenergic receptor): .079

Sequence: PRPRLLRFKIP [AG19]
ELISA (β2 adrenergic receptor): .361

Sequence: QGEHLRQLQLQ [AG2]
ELISA (β2 adrenergic receptor): .330

Sequence: QGMQLRRFKLR [AG1]
ELISA (β2 adrenergic receptor): .435

Sequence: QRIHRRPFKFF [BAR1]
ELISA (β2 adrenergic receptor): .218

Sequence: QRLHLRGYEFL [AG13]
ELISA (β2 adrenergic receptor): .054

Sequence: QRLNVGEYNLV (also: fused to MBP) [PAR-34, MBP clone, linker LPQM]
binding affinity for PAR1 (in words) (PAR1): high affinity binding

Sequence: QRLRLGPDELF [AG4]
ELISA (β2 adrenergic receptor): .291

Sequence: QRMNLGPCGLL [AG18]
ELISA (β2 adrenergic receptor): .155

Sequence: QRMPLRLFEFL [AG3]
ELISA (β2 adrenergic receptor): .217

Sequence: QRMPLRQYELL [AG9]
ELISA (β2 adrenergic receptor): .190

Sequence: QRVHLRQDELL [BAR2]
ELISA (β2 adrenergic receptor): .197

Sequence: QWMDLRQHELL [BAR3]
ELISA (β2 adrenergic receptor): .185

Sequence: RWLHWQYRGRG [AG20]
ELISA (β2 adrenergic receptor): .431

Second part, led by results:

ELISA (rhodopsin [1]): .342
Sequence: ICENLKDCGLF [Clone L6]

EC50 [2]: 42 nM | ELISA OD450 [2]: .36 | EC50 (rhodopsin [3]): 5400 nM
Sequence: ICENLKDCGLF [MBP-10]

EC50 [2]: 6000 nM | ELISA OD450 [2]: .01 | EC50 (rhodopsin [3]): > 100000 nM
Sequence: IKENLKDCGLF [Gt, reference compound]

ELISA (rhodopsin [1]): .839
Sequence: ILENLKDCGLF [Clone L3]

ELISA (rhodopsin [1]): .603
Sequence: ILESLNECGLF [Clone L34]

ELISA (rhodopsin [1]): .600
Sequence: ILQNLKDCGLF [Clone L17]

ELISA (rhodopsin [1]): .423
Sequence: IRGSLKDCGLF [Clone L20]

ELISA (rhodopsin [1]): .187
Sequence: ISKNLRDCGLL [Clone L13]

ELISA (rhodopsin [1]): .257
Sequence: IVKNLEDCGLF [Clone L8]

ELISA (rhodopsin [1]): .823
Sequence: LLDILKDCGLF [Clone L38]

EC50 [2]: 7.8 nM | ELISA OD450 [2]: .54 | EC50 (rhodopsin [3]): 940 nM
Sequence: LLENLRDCGMF [Peptide 8]

binding affinity to light-activated rhodopsin (in words) [2]: high affinity | stabilization of MII (in words) (rhodopsin [3]): stabilized MII
Sequence: LLENLRDCGMI [MBP-8]

EC50 [2]: 10 nM | ELISA OD450 [2]: .35 | EC50 (rhodopsin [3]): 1050 nM
Sequence: LQQVLKDCGLL [MBP-9]

ELISA (rhodopsin [1]): .833
Sequence: LRENLKDCGLL [Clone L14]

ELISA (rhodopsin [1]): .908
Sequence: MLDNLKACGLF [Clone L4]

ELISA (rhodopsin [1]): .525
Sequence: MLDNLKDCGLF [Clone L7]

EC50 [2]: 3.8 nM | ELISA OD450 [2]: .58 | EC50 (rhodopsin [3]): 1240 nM
Sequence: MLENLKDCGLF [MBP-18]
binding affinity to light-activated rhodopsin (in words) [2]: even higher binding affinities than did MBP-8

EC50 [2]: 6.6 nM | ELISA OD450 [2]: .61 | EC50 (rhodopsin [3]): 490 nM
Sequence: MLKNLKDCGMF [MBP-24]
binding affinity to light-activated rhodopsin (in words) [2]: even higher binding affinities than did MBP-8

ELISA (β2 adrenergic receptor): .028
Sequence: PCIQLGQYESF [BAR40]

ELISA (β2 adrenergic receptor): .026
Sequence: QRLRLRKYRLF [BAR31]

EC50 [2]: 20 nM | ELISA OD450 [2]: .66 | EC50 (rhodopsin [3]): 3500 nM
Sequence: VLEDLKSCGLF [MBP-23]

ELISA (rhodopsin [1]): .621
Sequence: VRDILKDCGLF [Clone L15]
